Test results taken from article doi:10.64898/2025.12.23.696152 (bioRxiv, 2025).
Where “and” joins values, the source holds several entries; their conditions need not be identical. Equal entries are not always repeated. Each block holds one molecule with its values, some of them ahead of it.

Experiments:
[1] = target: KIF5C(Δtail)-mScarlet-Strep-tag II (human) (UniProt O60282); experiment: mass photometry
[2] = target: KIF5C(ΔtailΔelbow)-mScarlet-Strep-tag II (human) (UniProt O60282); experiment: mass photometry
mass photometry = target: the molecule itself; experiment: mass photometry
[3] = target: Taxol-stabilized microtubules polymerised from pig brain tubulin (pig) (UniProt P02550); experiment: TIRF single-molecule motility assay

percent of particles as dimer [2]: 91%
stoichiometry N [2]: 2
Molecule: KIF5C(ΔtailΔelbow)-mScarlet-Strep-tag II (from UniProt O60282 1-914) (domain or fragment)

landing rate (molecules/μm/s) [3]: 0.011 and 0.0047
B3: KIF5C-mScarlet-Strep-tag II (human KIF5C, full length) (natural protein)
chain: MADPAECSIKVMCRFRPLNEAEILRGDKFIPKFKGDETVVIGQGKPYVFDRVLPPNTTQEQVYNACAKQIVKDVLEGYNGTIFAYGQTSSGKTHTMEGKLHDPQLMGIIPRIAHDIFDHIYSMDENLEFHIKVSYFEIYLDKIRDLLDVSKTNLAVHEDKNRVPYVKGCTERFVSSPEEVMDVIDEGKANRHVAVTNMNEHSSRSHSIFLINIKQENVETEKKLSGKLYLVDLAGSEKVSKTGAEGAVLDEAKNINKSLSALGNVISALAEGTKTHVPYRDSKMTRILQDSLGGNCRTTIVICCSPSVFNEAETKSTLMFGQRAKTIKNTVSVNLELTAEEWKKKYEKEKEKNKTLKNVIQHLEMELNRWRNGEAVPEDEQISAKDQKNLEPCDNTPIIDNIAPVVAGISTEEKEKYDEEISSLYRQLDDKDDEINQQSQLAEKLKQQMLDQDELLASTRRDYEKIQEELTRLQIENEAAKDEVKEVLQALEELAVNYDQKSQEVEDKTRANEQLTDELAQKTTTLTTTQRELSQLQELSNHQKKRATEILNLLLKDLGEIGGIIGTNDVKTLADVNGVIEEEFTMARLYISKMKSEVKSLVNRSKQLESAQMDSNRKMNASERELAACQLLISQHEAKIKSLTDYMQNMEQKRRQLEESQDSLSEELAKLRAQEKMHEVSFQDKEKEHLTRLQDAEEMKKALEQQMESHREAHQKQLSRLRDEIEEKQKIIDEIRDLNQKLQLEQEKLSSDYNKLKIEDQEREMKLEKLLLLNDKREQAREDLKGLEETVSRELQTLHNLRKLFVQDLTTRVKKSVELDNDDGGGSAAQKQKISFLENNLEQLTKVHKQLVRDNADLRCELPKLEKRLRATAERVKALESALKEAKENAMRDRKRYQQEVDRIKEAVRAKNMARRAHSAQIAKPIRPGHYPASSPTAVHAIRGGGGSSSNSTHYQK
stoichiometry N (mass photometry): 2 and 4

Second part, the molecule before the results:

Molecule: KIF5C(Δtail)-mScarlet-Strep-tag II (from UniProt O60282 1-914) (domain or fragment)
percent of particles as dimer [1]: 93%
stoichiometry N [1]: 2

B1: KIF5C(Δelbow)-mScarlet-Strep-tag II (natural protein)
chain: MADPAECSIKVMCRFRPLNEAEILRGDKFIPKFKGDETVVIGQGKPYVFDRVLPPNTTQEQVYNACAKQIVKDVLEGYNGTIFAYGQTSSGKTHTMEGKLHDPQLMGIIPRIAHDIFDHIYSMDENLEFHIKVSYFEIYLDKIRDLLDVSKTNLAVHEDKNRVPYVKGCTERFVSSPEEVMDVIDEGKANRHVAVTNMNEHSSRSHSIFLINIKQENVETEKKLSGKLYLVDLAGSEKVSKTGAEGAVLDEAKNINKSLSALGNVISALAEGTKTHVPYRDSKMTRILQDSLGGNCRTTIVICCSPSVFNEAETKSTLMFGQRAKTIKNTVSVNLELTAEEWKKKYEKEKEKNKTLKNVIQHLEMELNRWRNGEAVPEDEQISAKDQKNLEPCDNTPIIDNIAPVVAGISTEEKEKYDEEISSLYRQLDDKDDEINQQSQLAEKLKQQMLDQDELLASTRRDYEKIQEELTRLQIENEAAKDEVKEVLQALEELAVNYDQKSQEVEDKTRANEQLTDELAQKTTTLTTTQRELSQLQELSNHQKKRATEILNLLLKDLGEIGGIIGTNDVKTLADVNGVIEEEFTMARLYISKMKSEVKSLVNRSKQLESAQMDSNRKMNASERELAACQLLISQHEAKIKSLTDYMQNMEQKRRQLEESQDSLSEELAKLRAQLQDAEEMKKALEQQMESHREAHQKQLSRLRDEIEEKQKIIDEIRDLNQKLQLEQEKLSSDYNKLKIEDQEREMKLEKLLLLNDKREQAREDLKGLEETVSRELQTLHNLRKLFVQDLTTRVKKSVELDNDDGGGSAAQKQKISFLENNLEQLTKVHKQLVRDNADLRCELPKLEKRLRATAERVKALESALKEAKENAMRDRKRYQQEVDRIKEAVRAKNMARRAHSAQIAKPIRPGHYPASSPTAVHAIRGGGGSSSNSTHYQK
stoichiometry N (mass photometry): 4

B2: KIF5C(Δelbow)-Strep-tag II (natural protein)
chain: MADPAECSIKVMCRFRPLNEAEILRGDKFIPKFKGDETVVIGQGKPYVFDRVLPPNTTQEQVYNACAKQIVKDVLEGYNGTIFAYGQTSSGKTHTMEGKLHDPQLMGIIPRIAHDIFDHIYSMDENLEFHIKVSYFEIYLDKIRDLLDVSKTNLAVHEDKNRVPYVKGCTERFVSSPEEVMDVIDEGKANRHVAVTNMNEHSSRSHSIFLINIKQENVETEKKLSGKLYLVDLAGSEKVSKTGAEGAVLDEAKNINKSLSALGNVISALAEGTKTHVPYRDSKMTRILQDSLGGNCRTTIVICCSPSVFNEAETKSTLMFGQRAKTIKNTVSVNLELTAEEWKKKYEKEKEKNKTLKNVIQHLEMELNRWRNGEAVPEDEQISAKDQKNLEPCDNTPIIDNIAPVVAGISTEEKEKYDEEISSLYRQLDDKDDEINQQSQLAEKLKQQMLDQDELLASTRRDYEKIQEELTRLQIENEAAKDEVKEVLQALEELAVNYDQKSQEVEDKTRANEQLTDELAQKTTTLTTTQRELSQLQELSNHQKKRATEILNLLLKDLGEIGGIIGTNDVKTLADVNGVIEEEFTMARLYISKMKSEVKSLVNRSKQLESAQMDSNRKMNASERELAACQLLISQHEAKIKSLTDYMQNMEQKRRQLEESQDSLSEELAKLRAQLQDAEEMKKALEQQMESHREAHQKQLSRLRDEIEEKQKIIDEIRDLNQKLQLEQEKLSSDYNKLKIEDQEREMKLEKLLLLNDKREQAREDLKGLEETVSRELQTLHNLRKLFVQDLTTRVKKSVELDNDDGGGSAAQKQKISFLENNLEQLTKVHKQLVRDNADLRCELPKLEKRLRATAERVKALESALKEAKENAMRDRKRYQQEVDRIKEAVRAKNMARRAHSAQIAKPIRPGHYPASSPTAVHAIRGGGGSSSNSTHYQK
percent of particles as dimer (mass photometry): 13%
percent of particles as tetramer (mass photometry): 62%
stoichiometry N (mass photometry): 2 and 4

B4: KIF5C-Strep-tag II (natural protein)
chain: MADPAECSIKVMCRFRPLNEAEILRGDKFIPKFKGDETVVIGQGKPYVFDRVLPPNTTQEQVYNACAKQIVKDVLEGYNGTIFAYGQTSSGKTHTMEGKLHDPQLMGIIPRIAHDIFDHIYSMDENLEFHIKVSYFEIYLDKIRDLLDVSKTNLAVHEDKNRVPYVKGCTERFVSSPEEVMDVIDEGKANRHVAVTNMNEHSSRSHSIFLINIKQENVETEKKLSGKLYLVDLAGSEKVSKTGAEGAVLDEAKNINKSLSALGNVISALAEGTKTHVPYRDSKMTRILQDSLGGNCRTTIVICCSPSVFNEAETKSTLMFGQRAKTIKNTVSVNLELTAEEWKKKYEKEKEKNKTLKNVIQHLEMELNRWRNGEAVPEDEQISAKDQKNLEPCDNTPIIDNIAPVVAGISTEEKEKYDEEISSLYRQLDDKDDEINQQSQLAEKLKQQMLDQDELLASTRRDYEKIQEELTRLQIENEAAKDEVKEVLQALEELAVNYDQKSQEVEDKTRANEQLTDELAQKTTTLTTTQRELSQLQELSNHQKKRATEILNLLLKDLGEIGGIIGTNDVKTLADVNGVIEEEFTMARLYISKMKSEVKSLVNRSKQLESAQMDSNRKMNASERELAACQLLISQHEAKIKSLTDYMQNMEQKRRQLEESQDSLSEELAKLRAQEKMHEVSFQDKEKEHLTRLQDAEEMKKALEQQMESHREAHQKQLSRLRDEIEEKQKIIDEIRDLNQKLQLEQEKLSSDYNKLKIEDQEREMKLEKLLLLNDKREQAREDLKGLEETVSRELQTLHNLRKLFVQDLTTRVKKSVELDNDDGGGSAAQKQKISFLENNLEQLTKVHKQLVRDNADLRCELPKLEKRLRATAERVKALESALKEAKENAMRDRKRYQQEVDRIKEAVRAKNMARRAHSAQIAKPIRPGHYPASSPTAVHAIRGGGGSSSNSTHYQK
stoichiometry N (mass photometry): 4 and 2
